Common to all, as to experiment: cell_activity
For series [1], the system named is T1, SC_CAPNS1 single-chain meganuclease (engineered).
T1 sequence: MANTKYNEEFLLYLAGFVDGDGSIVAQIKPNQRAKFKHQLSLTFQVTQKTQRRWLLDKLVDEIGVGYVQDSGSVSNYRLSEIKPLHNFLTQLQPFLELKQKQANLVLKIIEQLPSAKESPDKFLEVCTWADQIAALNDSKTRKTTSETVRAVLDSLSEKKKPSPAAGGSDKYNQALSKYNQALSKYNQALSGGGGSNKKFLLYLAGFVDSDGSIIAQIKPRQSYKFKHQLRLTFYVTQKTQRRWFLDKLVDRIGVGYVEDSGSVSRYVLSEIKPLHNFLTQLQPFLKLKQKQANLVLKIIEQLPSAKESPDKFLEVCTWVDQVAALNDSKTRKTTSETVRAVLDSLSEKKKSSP
To be noted: 293H endogenous locus; 18.25 with TREX2, 25.4 with scTREX2.

Series [2] has as its system T2, scTrex2-SC_CAPNS1 (engineered (human TREX2 fusion)).
T2 sequence: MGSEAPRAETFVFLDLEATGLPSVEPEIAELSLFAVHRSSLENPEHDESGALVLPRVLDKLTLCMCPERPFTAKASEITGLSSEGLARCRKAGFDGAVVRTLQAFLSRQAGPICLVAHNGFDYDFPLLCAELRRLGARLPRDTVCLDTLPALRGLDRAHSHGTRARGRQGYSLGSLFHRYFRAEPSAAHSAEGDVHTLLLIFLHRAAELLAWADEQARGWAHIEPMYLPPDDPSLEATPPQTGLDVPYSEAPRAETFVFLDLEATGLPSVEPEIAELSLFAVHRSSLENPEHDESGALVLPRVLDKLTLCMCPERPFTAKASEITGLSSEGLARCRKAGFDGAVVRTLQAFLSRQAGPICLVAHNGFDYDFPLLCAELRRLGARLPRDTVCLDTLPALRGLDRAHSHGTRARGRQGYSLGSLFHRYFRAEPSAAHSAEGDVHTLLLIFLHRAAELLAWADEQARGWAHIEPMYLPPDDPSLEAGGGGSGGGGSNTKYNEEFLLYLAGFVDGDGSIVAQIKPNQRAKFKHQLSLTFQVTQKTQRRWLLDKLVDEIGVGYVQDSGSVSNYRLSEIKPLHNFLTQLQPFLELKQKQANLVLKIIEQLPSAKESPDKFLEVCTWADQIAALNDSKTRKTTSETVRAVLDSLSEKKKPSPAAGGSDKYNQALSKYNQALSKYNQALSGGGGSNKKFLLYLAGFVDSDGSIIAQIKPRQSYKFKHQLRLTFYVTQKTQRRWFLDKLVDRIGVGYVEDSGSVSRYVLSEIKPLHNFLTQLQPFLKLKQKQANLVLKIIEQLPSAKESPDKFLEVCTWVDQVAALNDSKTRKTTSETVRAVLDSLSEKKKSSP
To be noted: 293H endogenous locus.

In series [3] the test system is T3, SC_RAG single-chain meganuclease (engineered).
T3 sequence: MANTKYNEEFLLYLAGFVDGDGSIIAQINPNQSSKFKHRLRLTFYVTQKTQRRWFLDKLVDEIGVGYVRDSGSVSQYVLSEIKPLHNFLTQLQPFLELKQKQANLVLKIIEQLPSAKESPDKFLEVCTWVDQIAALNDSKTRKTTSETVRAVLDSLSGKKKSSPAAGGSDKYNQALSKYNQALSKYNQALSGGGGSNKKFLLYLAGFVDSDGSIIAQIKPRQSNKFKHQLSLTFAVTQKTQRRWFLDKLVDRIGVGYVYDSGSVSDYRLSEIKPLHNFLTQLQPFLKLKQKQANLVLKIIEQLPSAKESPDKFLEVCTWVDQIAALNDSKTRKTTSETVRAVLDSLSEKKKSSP
To be noted: 293H endogenous locus; 4.69 with TREX2, 5.41 with scTREX2.

For series [4], the system named is T4, scTrex2-SC_RAG (engineered (human TREX2 fusion)).
T4 sequence: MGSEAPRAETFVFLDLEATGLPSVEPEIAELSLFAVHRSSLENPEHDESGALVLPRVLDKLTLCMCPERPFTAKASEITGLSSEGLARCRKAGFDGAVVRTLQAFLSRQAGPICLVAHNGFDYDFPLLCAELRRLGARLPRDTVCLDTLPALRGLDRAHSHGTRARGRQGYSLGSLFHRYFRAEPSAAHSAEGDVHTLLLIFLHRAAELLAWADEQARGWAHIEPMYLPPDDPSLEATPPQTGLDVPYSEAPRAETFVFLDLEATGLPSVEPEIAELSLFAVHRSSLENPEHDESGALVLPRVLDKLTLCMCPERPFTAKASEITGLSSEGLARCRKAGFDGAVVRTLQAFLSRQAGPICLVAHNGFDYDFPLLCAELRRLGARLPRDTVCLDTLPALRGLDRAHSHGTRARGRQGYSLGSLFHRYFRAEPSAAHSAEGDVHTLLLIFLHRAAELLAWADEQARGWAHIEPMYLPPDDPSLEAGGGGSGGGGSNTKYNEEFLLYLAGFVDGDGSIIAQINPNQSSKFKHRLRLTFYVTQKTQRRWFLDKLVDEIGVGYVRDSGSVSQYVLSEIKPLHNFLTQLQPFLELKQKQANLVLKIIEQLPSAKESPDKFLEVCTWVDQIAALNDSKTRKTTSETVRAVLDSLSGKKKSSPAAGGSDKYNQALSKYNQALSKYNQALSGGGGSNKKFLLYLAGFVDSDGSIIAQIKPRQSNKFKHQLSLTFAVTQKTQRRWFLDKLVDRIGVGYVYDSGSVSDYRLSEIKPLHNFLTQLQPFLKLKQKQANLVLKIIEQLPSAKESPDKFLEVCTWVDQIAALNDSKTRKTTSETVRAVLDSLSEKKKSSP
To be noted: 293H endogenous locus.

Regarding CAPNS1 locus meganuclease target, the results for the activity (% targeted mutagenesis) in series [1] and in series [2] were 15.2 and 35.8, respectively.

On to RAG1 locus target, for which the activity (% targeted mutagenesis) in series [3] was determined as 1.4; in series [4] it was 8.42.
